# According to the DeepSol protein solubility set:
# Assay: soluble on expression in E. coli; label from the status in PepcDB or PDB records
row,Sequence,soluble on expression in E. coli
1,MSLELEAKLAQANEQIKELSKREERVRIARDLHDTLGHTLSLLTLKSQLIQRLAASDPERTKLEAKEMETSSRSALKQVRELVSDMRTVTITEELVNIQHILRAGNITFQYEGADDFSVISPVTQNIISMCMREAVTNIIKHSKATHCAITISQFADKMRIVIRDDGKGAPKEKMFGNGLWGMEERLMLIEGGLTVSDHNGTVVALTIPLIKKAEEGHHHHHH,soluble
2,MAHHHHHHMSEGGRRRKVYGFKAERQAFFSKHVRQTFLEEGRKKKDEERARMEAYRKLCEEEGIVSKRLEDYDRTRKAAKEHLSSTLEQIDYDQSLTNNEKKKRKYNLKRKFAATTVNDLIDKQQKHYSAVSGMEEVQRRQQQEREEKQKARQEREREKQSRVQARKSRNALFAKRTKKGQPAMSSRVESLLQKISWQ,not soluble
3,MPTLKYLPHYPPALVQQAQALFDSGELGALLRSKYPDGHDVQTDKALYQFVSALKQRHLKNAPLPAKVLYDNQQHPLKGTLGTNTTISRVQGGRLKSKSEIRIASLFRELPLPFLQMIVVHELAHLKVRDHDKAFYQLCCHMQPDYHQLEFDLRLWLNWREQRRNLEHHHHHH,soluble
4,SFQGQRGWFCGSVSQDLRQFWVAEGGTISDPRAADFLFSCDASHPDTLRIYQSLDYIEDNATVFHAYYLSAVANAKIKNSVALGHFILPPACLQKEIRRKIGSFIWEQDQHFLIEKHDEVTPNEIKTLRENSELATEHKKELSKSPEKHFIRTPVVEKQMYFPLQNYPVNNMVTGYISIDAMKKFLGELHDFIPGTSGYLAYHVQNEINMSAIKNKLKRK,soluble
5,RDHRKIGKQLDLYHMQEEAPGMVFWHNDGWTIFRELEVFVRSKLKEYQYQEVKGPFMMDRVLWEKTGHWDNYKDAMFTTSSENREYCIKPMNCPGHVQIFNQGLKSYRDLPLRMAEFGSCHRNEPSGSLHGLMRVRGFTQDDAHIFCTEEQIRDEVNGCIRLVYDMYSTFGFEKIVVKLSTRPEKRIGSDEMWDRAEADLAVALEENNIPFEYQLGEGAFYGPKIEFTLYDCLDRAWQCGTVQLDFSLPSRLSASYVGEDNERKVPVMIHRAILGSMERFIGILTEEFAGFFPTWLAPVQVVIMNITDSQSEYVNELTQKLSNAGIRVKADLRNEKIGFKIREHTLRRVPYMLVCGDKEVESGKVAVRTRRGKDLGSMDVNEVIEKLQQEIRSRSLKQLEE,soluble
6,LTGPLMLDTAPNAFDDQYEGCVNKMEEKAPLLLQEDFNMNAKLKVAWEEAKKRWNNIKPSRSYPKGFNDFHGTALVAYTGSIAVDFNRAVREFKENPGQFHYKAFHYYLTRALQLLSNGDCHSVYRGTKTRFHYTGAGSVRFGQFTSSSLSKKVAQSQEFFSDHGTLFIIKTCLGVYIKEFSFRPDQEAVLIPGYEVYQKVRTQGYNEIFLDSPKRKKSNYNCLYS,soluble
7,MGHHHHHHHHHHSSGHIDDDDKHMKNKKDKGLLSGKLTPAQSKNPAKNELYLVEGDSAGGSAKQGRDRKFQAILPLRGKVINTAKAKMADILKNEEINTMIYTIGAGVGADFSIEDANYDKIIIMTDADTDGAHIQTLLLTFFYRYMRPLVEAGHVYIALPPLYKMSKGKGKKEEVAYAWTDGELEELRKQFGKGATLQRYKGLGEMNADQLWETTMNPETRTLIRVTIEDLARAERRVNVLMGDKVEPRRKWIEDNVKFTLEEATVF,soluble
8,MGSDKIHHHHHHMRDQADRLREMALNLKQEIEAEIRRDLRYSRVVVISSGKGGVGKSTLALNLSLNLCARGMKIILMDADMGLANLDVMLGLVTKFNIYHIVQQKKSMEEITISGPEGLKIIPGGSGISELANLENTELKRILVELRKLDGAYDYMIIDTGAGISKSVMNFLLAAEDIIVITTPEPTAITDAYSLVKNVAKNSFAGSIYLVVNKVANDSEGILVAEKFKLVCQKFLSCEIKPLGHIVNEPLIGEGIRRQKAFVQIYPRSTATRNINTIVDRLIEASGQKSPGLESKRGGIRYFIEKIAGLVK,not soluble
9,DDPQRVTWPTNAGTIQQALKRGYVVVAAGIRGRTTVDKSGQRVGQAPAFIVDMKAAIRYVKYNQGRLPGDTNRIITNGTSAGGATSALAGASGNSAYFEPALTALGAAPATDDIFAVSAYCPIHNLEHADMAYEWQFNGINDWHRYQPVAGTTKNGRPKFEPVSGQLTVEEQALSLALKAQFSTYLNQLKLTASDGTHLTLNEAGMGSFRDVVRQLLISSAQTAFDQGTDIHKYAGFVVTGNQVTDLDLSAYLKSLTRMKAVPAFDQLDLTSPENNLFGDATAKAKHFTALAQTRSTVTAQLADAELIQAINPLSYLTTTSSRVAKHWRIRHGAADRDTSFAIPIILAIMLENHGYGIDFALPWDIPHSGD,not soluble
10,MTQMNFTDRATRVAIIANGKYQSKRVASKLFAAFKHDPDFYLSKKDPDIVISIGGDGMLLSAFHMYEKQLDKVRFVGVHTGHLGFYTDYRDFEVDTLINNLKNDKGEQISYPILKVTITLEDGRVIRARALNESTIKRIEKTMVADVVINQVVFERFRGDGILVSTPTGSTAYNKSLGGAVLHPTIEALQLTEISSLNNRVYRTLGSSVIIPKKDAIEIVPKRVGVYTISIDNKTVHYKNVTKIEYSIDEKSINFVSTPSHTSFWERVNDAFIGEPEHLEHHHHHH,not soluble
11,MGSDKIHHHHHHACSLQQYQTKIVANNNYGIYQSLTRKGPVRQMGVTGTFKYSHFQASSVKKIKHNTYWYVLINGHKAGWVNQSAFARNKISVAKRVSLVKNPYYDFNVKDAINYVTDSSGSVVDLDKVHVSQNTVSSAKAGIHNITYTYGKGKAHSLIRVRNDQYEGIVNANKKPQMGKSGVTWFKHFKTSGNWGKGSSYAPETKPHVLKNGNFKLKTVFYQPATLSQGDSKLGVVGPLPEGLAVSDGRMYATMYDRPTRTHAHIVSYQLNQIPNRYVMQKLPWLPWPEFARLSATIKVSPLIKLGHGQAISTSKKYIYVIANNHLLRNNPESEEIMQISKNDLQIKKIWTFKIWDQKSEYGRYVHNAVFLNDHKFIAVYHSSTMNRFEYWEVTRHGNSWYPKEIGATKGEFMRNNSPVQGIAYDKHKKQIYLAFNDYLFKLNRKGRVIENGHFNTGREFEGICVDNKTFYAELAQRPELLKQKLK,not soluble
12,MGSDKIHHHHHHMSHPPLIVHVIFHLGVGGLENGLVNLINHIPADRYRHAIICLKGFSEFHKRLNRDDVEIIALNKREGKDFSVYGKLYRVFRQLKPDIVHTRNLTAMEAQVVAAVAGVKARVHGEHGRDIFDLDGKNWKYNLLRKAIRPFIHHFITVSKDLENWLIDTVKVSPVKVHQIYNGVEHLRFHPGGTVPVEIFPPDFFAGRPFVVGSVGRMAAVKDFPTLVQAFLMLRNELSEIDRPLRLIIAGEGVARAECEAMLRSAGVEQFAWLPGERDDIPQLMQAMDVFVLPSLGEGISNTVLEAMASGLPVIATRVGGNTELVLEGETGRLVPSGDPVALARAISQYHQDNTAVYKHGQHARAIIEQQFSMRSMTNGYLAVYDRVLGYKSKTETIN,not soluble
13,MLFERIYEEGLAQASYFIGCQREGKAIVVDARRDIQTYLDLAAKNNMVISAVTETHIHADYLSGTRELAAATGAEIFLSGEGGADWQYGFTGTTLMHNSTIKLGNITITAKHTPGHTPEHLSFLITDGAVSKDPGFMLSGDFVFVGDVGRPDLLDEAAGGVDTRFAGAQQLFHSLKEQFLALPDHIQVYPGHGAGSPCGKALGAIPSTTVGYEKANAWWAPYLRSDDEAGFVEELLDGQPDAHAYFARMKKQNKQGPAVLSTLSPLVKLEAEEVVEKLGSEAVFVDTREQNQVHLGTVVGALNIPRGAKASNFAAWVIDPQKDAQDLIVLAPDANTAADFRDALLRVGIDTVRYFTNSIDGLPTFVPELISPAELAETNYDALIDIRAKSEFAAGSIPGAQQLSGGSAMWRLNELPAGGTLVTFCQSGARNTVVANALRRAGFTVIELEGSYAAWEKSAANPLEHHHHHH,soluble
14,MSLAYQSEYALENEMMNQLEQLGYERVTIRDNKQLLDNFRTILNERHADKLEGNPLTDKEFQRLLTMIDGKSIFESARILRDKLPLRRDDESEIYLSFLDTKSWCKNKFQVTNQVSVEDTYKARYDVTILINGLPLVQVELKRRGIDINEAFNQVKRYRKQNYTGLFRYIQMFIISNGVETRYFSNNDSELLKSHMFYWSDEGHHHHHH,not soluble
15,MKVEQIYTGCLAQGAYYITSMGEAAIIDPLREITPYLERLKRDGVKLKYILETHFHADFVSGHLDLSRATGAPIVYGPTAKPGFDAIVAEDNQIFELGNVKIRVLHTPGHTMESSCFLLIDENGREAALFSGDTLFLGDVGRPDLAQKAANLTQEELAGLLYDSLYTKILPLSDDIIVYPAHGAGSACGKNMMQETVDSLGNQKRVNYALNQPGKEAFIASVIEGLLPPPAYFGGNVAMNKMGYDSIDNVMERGLSALSATDFEAIAKTSDALVLDTRAPGVFAQGFIPRSINIGLDGDFAPWVGTMIVDVKQPLLLVADPGREQEVITRLSRVGFDQVLGYLDGGFDTWNASGKEIDHVECITANEFAERFCPEESLVFDVRKESEYAAEHVEGAYSRPLAYINDWIQDIPRDRHFYLHCIGGYRSMIASSILLSRGYRNFTDIEGGFASIAQTGVPKTDYVCQSKVSKKLEHHHHHH,soluble
16,MSHFLVEKLTKTVGDKTVFQDISFIIHDFDRIGIIGVNGTGKTTLLDVLSGRLGFDGDHSPFSKANDYKIAYLTQDPEFNDAASVLDTVLSADVKAIQLIRQYELLMANYTEDKQESLESLMSEMDRLDAWSIESDVKTVLSKLGITDLEQKVGDLSGGMRRRVQLAQVLLGAADLLLLDEPTNHLDIDTIAWLTTYLKTAKKTVLFITHDRYFLDHVATRIFELDKAGLTEYQGNYQDYVRLKAEQDERDAANLHKKKQLYKQELAWMRTQPQARATKQQARINRFSDLKKEVHQDSSADKLEMTFETSRIGKKVIHFEDLSFAYGDRQLIKDFNLIIQNKDRIGIVGDNGVGKSTLLNIINGDLKPTSGKLDIGDTIRVGYFSQQLKDMDETKRVINYLQEVADEVKTSVGTTSISELLEQFLFPRSSHGTLIAKLSGGEKKRLYLLKLLIEKPNVLLLDEPTNDLDIATLKVLENFLANFAGPVITVSHDRYFLDKVATKILAFEEGDIRVFYGNYSDYLDEKVFEKETVEADLAKTTVTEEVPLPQKEERKRMSYLEKQEWAQIEDKIATIEANIEEIENQMLTVVSDYGQLAQLQKELDQRNNDLLLAYERFEYLSGLDI,not soluble
17,MGSDKIHHHHHHVSDTVDHNAWKTTGVVVIQNDVLTLAGSNARALLNDGKGYTNFELDMDVRTTTGGKGYIGIHTDATDRKGYRIALNNDREDPVWWRMTGSLVSVRNLTKSFVKENEWFKMNIRVEGRLIRVRINGETVVEYIEPSKPFRLKENAKALLSQGTISLVGTGRGNLQFKNISLEAFSAKGIDIPAQWANAVDEQTDEIIRLHQEDFPVLDYHVHLKGGLTKEVAARQSRQTGVNYGLAINCGIGFSITNDTELYNYLDTMRTQPFILAMQAEGREWVTTFSEAARNSFDYVFTDAMTFLDHKGRRTHLWVNKEVIIDDEQAYMDMMLDRICSVLEEPVDMYVNSCFLPDAMSDRYDMFWTEERIDRFVNALAKSGKALEINELYHIPNKAIIQKAKAAGVKFTFGSNNITPEVGTLDYCIRMKKECGLTAQDMYKPHINI,not soluble
18,MSPESSNQTTSLSSFLLKCAFPDGTVPINIAPQSLSLSSSPGSYDGDQFSPLMKQHKSRKYDSCTISDDLHDEMKRLKKKEEAFKTALCGFQRRGQKCIYGEQCKFAHSVHELRFTQAKKTHRNYKTVLCDKFSTTGYCKYGARCQFIHRALGSTSTTESAEMADFKLNVESDLSRAFALDYTSFLPNWHCSALLH,not soluble
